The values that follow come from paper PMC5871853, “First insights of peptidoglycan amidation in Gram-positive bacteria - the high-resolution crystal structure of Staphylococcus aureus glutamine amidotransferase GatD” (Scientific Reports, 2018).

The target in one test is T1, S. aureus GatD (Staphylococcus aureus, UniProt A0A0H2WZ38).
T1 construct: full-length, 243 residues; pOPINF vector, E. coli Lemo21(DE3), IMAC and SEC; crystallised without MurT; dimer in crystal non-physiological
T1 sequence (A0A0H2WZ38 1-243): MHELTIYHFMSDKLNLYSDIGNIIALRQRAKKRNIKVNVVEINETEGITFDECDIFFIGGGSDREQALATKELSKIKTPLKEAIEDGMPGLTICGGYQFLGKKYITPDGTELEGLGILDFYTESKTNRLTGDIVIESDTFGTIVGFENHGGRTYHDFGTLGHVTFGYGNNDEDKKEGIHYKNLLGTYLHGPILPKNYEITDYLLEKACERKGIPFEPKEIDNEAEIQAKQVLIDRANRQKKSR
The test is described as follows: X-ray crystal structure, […] Å. Type of test: binding. Particulars: co-purified glutamine; bound at surface of chain A to R128, outside the active site; MurT absent.

Test [1] has as its target S. aureus MurT-GatD complex (Staphylococcus aureus, UniProt A0A0H2WZ38). To be noted: 875 µM Gln, 35 µM complex, no lipid II; 50 mM Tris-d11, 500 mM NaCl, 10 mM MgCl2, pH meter reading 7.9 in D2O, 293 K.
Test [2] concerns the target T2, S. aureus GatD H189A (from pET28a-murT-gatD-His6H189A) (Staphylococcus aureus strain COL, UniProt A0A0H2WZ38 1-243, H189A).
T2 sequence: T1 sequence (A0A0H2WZ38 1-243) with H189A
Briefly: co-purification (IMAC + SEC, SDS-PAGE). Particulars: partners not purified.

For test [3], the target named is T3, S. aureus GatD R128A (from pET28a-murT-gatD-His6R128A) (Staphylococcus aureus strain COL, UniProt A0A0H2WZ38 1-243, R128A).
T3 sequence: T1 sequence (A0A0H2WZ38 1-243) with R128A
The test is described as follows: co-purification (IMAC + SEC, SDS-PAGE). To be noted: partners not purified.

The target in test [4] is T4, S. aureus GatD C94A (from pET28a-murT-gatD-His6C94A) (Staphylococcus aureus strain COL, UniProt A0A0H2WZ38 1-243, C94A).
T4 sequence: T1 sequence (A0A0H2WZ38 1-243) with C94A
The test is described as follows: co-purification (IMAC + SEC, SDS-PAGE). To be noted: partners not purified.

For test [5], the target named is T5, S. aureus GatD wt (from pET28a-murT-gatD-His6) (Staphylococcus aureus strain COL, UniProt A0A0H2WZ38 1-243).
T5 construct: GatD, glutamine amidotransferase, Staphylococcus aureus strain COL, 243 amino acids; coding region amplified with murT as the murT-gatD operon; also called glutamine amidotransferase GatD
T5 sequence (looked up): T1 sequence (A0A0H2WZ38 1-243)
The test is described as follows: co-purification (IMAC + SEC, SDS-PAGE); MurT and GatD-His6 co-expressed in E. coli from one plasmid; HisTrap then Superdex 200 in 100 mM Tris-HCl pH 8.2, 500 mM NaCl, 10 mM MgCl2, 5 mM 2-mercaptoethanol; molar ratio read from a 12% SDS-PAGE gel of the final samples. Particulars: partners not purified.

Numbering of substitutions follows the chain as printed.

For the molecule `NC(=O)CC[C@H](N)C(=O)O` [glutamine], at S. aureus GatD, the “X-ray crystal structure, 1.85 Å” value is “S. aureus GatD crystallized in the presence of its substrate, glutamine”. For the same molecule, in test [1], the “1H-NMR glutaminase assay (Gln to Glu)” value was “MurT-GatD wt can convert glutamine into glutamate with a first order rate constant”.

B1: S. aureus MurT (enzyme, Staphylococcus aureus strain COL, UniProt A0A0H2WZQ7 1-437, looked up)
chain: MRQWTAIHLAKLARKASRAVGKRGTDLPGQIARKVDTDILRKLAEQVDDIVFISGTNGKTTTSNLIGHTLKANNIQIIHNNEGANMAAGITSAFIMQSTPKTKIAVIEIDEGSIPRVLKEVTPSMMVFTNFFRDQMDRFGEIDIMVNNIAETISNKGIKLLLNADDPFVSRLKIASDTIVYYGMKAHAHEFEQSTMNESRYCPNCGRLLQYDYIHYNQIGHYHCQCGFKREQAKYEISSFDVAPFLYLNINDEKYDMKIAGDFNAYNALAAYTVLRELGLNEQTIKNGFETYTSDNGRMQYFKKERKEAMINLAKNPAGMNASLSVGEQLEGEKVYVISLNDNAADGRDTSWIYDADFEKLSKQQIEAIIVTGTRAEELQLRLKLAEVEVPIIVERDIYKATAKTMDYKGFTVAIPNYTSLAPMLEQLNRSFEGGQS
notes: MurT, Mur ligase family member of the MurT-GatD complex, Staphylococcus aureus strain COL; coding region amplified with gatD as the murT-gatD operon
Regarding B1, the “stoichiometry N” value in test [2], in test [3], in test [4] and in test [5] was 1 MurT:GatD molar ratio each time.
